Patent publication US20060141569A1, “Compositions and methods for the assay of G-protein coupled receptors and their ligands” (priority 2004, published 2006)

Target: human CRF1 receptor (human) (UniProt P34998)
Assay: cell-based or functional assay

Chain of human CRF1 receptor (human) (P34998 24-415): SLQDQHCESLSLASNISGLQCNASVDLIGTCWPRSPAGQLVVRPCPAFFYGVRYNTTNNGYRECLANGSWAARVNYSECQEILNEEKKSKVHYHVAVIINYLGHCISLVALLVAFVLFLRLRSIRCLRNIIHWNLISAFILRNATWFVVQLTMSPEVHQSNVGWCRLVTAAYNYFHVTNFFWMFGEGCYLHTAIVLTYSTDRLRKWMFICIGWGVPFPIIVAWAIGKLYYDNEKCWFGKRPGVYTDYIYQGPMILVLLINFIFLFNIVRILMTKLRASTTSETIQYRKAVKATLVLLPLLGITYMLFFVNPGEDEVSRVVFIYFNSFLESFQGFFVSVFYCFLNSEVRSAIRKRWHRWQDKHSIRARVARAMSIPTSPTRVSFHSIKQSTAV

FLIPR Ca^2+ response EC50, CHEM-1 cells: 12 nM
FLIPR EC50, CRF1/CHEM-1 cells: 10 nM
cAMP response EC50, CHEM-1 cells: 4.9 nM
cAMP response EC50, CHO cells: 8.4 nM
Substance: sauvagine (from UniProt P01144 1-40) (peptide)
